Reference: patent US20110165161A1, “ANTI-EPCAM ANTIBODIES THAT INDUCE APOPTOSIS OF CANCER CELLS AND METHODS USING SAME” (priority 2009, published 2011)

Tested on: NCI-H358 lung cancer cells
Test: Cell death in NCI-H358 lung cancer cells (Annexin V + PI)
Assay type: cell-based, human
Settings: mAb 10 μg/ml, 17 hr; for % of Annexin V + PI staining (untreated background subtracted), Mean ± SEM: mean of 5 experiments
Method: 5×10^4 NCI-H358 cells were seeded to each well of a 96-well plate, and then 10 μg/ml of anti-EpCAM or control (9E10) mAbs diluted in the medium was added into the cells. After a 17-hr incubation at 37° C., the cells were stained with 0.3 μl of FITC-conjugated Annexin V (Strong Biotech Corp. Cat. No. AVK250) in 50 μl Annexin V binding buffer (Strong Biotech Corp. Cat. No. AVK250) at RT for 20 min. After wash, the cells were then stained with 0.3 μl of propidium iodide in 200 μl Annexin V binding buffer. Annexin V and Propidium Iodide were used as a joint indicator for measuring cell death. The data were acquired with BD FACSCalibur based on an acquisition of 3,000-5,000 cells and analyzed with the Cell Quest software. The combined percentages of the Annexin V+/PI+, Annexin V+/PI− and Annexin V−/PI+populations were considered as dead cells.

B1: 1F10: murine anti-human EpCAM monoclonal antibody (IgG1, λ1), hybridoma m338-1F10.3; VH SEQ ID NO:11, VL SEQ ID NO:13 (antibody, listed as Mus musculus, V domains shown)
VH: EVKLLESGGGLVQPGGSLKLSCAASGFDFSRYWMSWVRQAPGKGLEWIGEINPDSSTMNYTPSLKDKFIISRDNAKNTLYLQMSKVRSEDTALYYCARGAYAMDYWGQGTSVTVSS
VL: QAVVTQESALTTSPGETVTLTCRSSTGAVTTSNNANWVQEKPDHLFTGLIGATNNRAPGVPARFSGSLIGDKAALTITGAQTEDEAIYFCALWYINHWVFGGGTKLTVLG
Exp1
  % of Annexin V + PI staining (untreated background subtracted): 32%
Exp2
  % of Annexin V + PI staining (untreated background subtracted): 30%
Exp3
  % of Annexin V + PI staining (untreated background subtracted): 40%
Exp4
  % of Annexin V + PI staining (untreated background subtracted): 39%
Exp5
  % of Annexin V + PI staining (untreated background subtracted): 37%
  % of Annexin V + PI staining (untreated background subtracted), Mean ± SEM: 35.6 ± 2.0%

B2: 1G10: murine anti-human EpCAM monoclonal antibody (IgG1, K), hybridoma m290-1G10; VH SEQ ID NO:7, VL SEQ ID NO:9 (antibody, listed as Mus musculus, V domains shown)
VH: QIQLVQSGPELKKPGETVKISCKASGYTFTNYGMNWVKQAPGKGFKWMGWINTYTGEPTYADDFKGRFAFSLETSASTAYLQINNLQNEDMATYFCARWGYDFDYWGQGTTLTVSS
VL: QIVLTQSPAIMSSSPGEKVTMTCSASSSISYMNWYQQKPGTSPKRWIYDTSKLASGVPARFSGSGSGTSYSLTISSMEAEDAATYYCHQRSSYPYTFGGGTKLEIKR
Exp1
  % of Annexin V + PI staining (untreated background subtracted): 46%
Exp2
  % of Annexin V + PI staining (untreated background subtracted): 42%
Exp3
  % of Annexin V + PI staining (untreated background subtracted): 48%
Exp4
  % of Annexin V + PI staining (untreated background subtracted): 47%
Exp5
  % of Annexin V + PI staining (untreated background subtracted): 42%
  % of Annexin V + PI staining (untreated background subtracted), Mean ± SEM: 45.0 ± 1.3%
